Measurements reported in paper PMC9672952.

How the values were obtained:
[1] = target: Fusion of LpRseP (1–201, 222–425) and EfmRseP (202–221) (Lactiplantibacillus plantarum WCFS1 | Enterococcus faecium P21) (UniProt I3U2R6)
[2] = target: EfmRseP with substitution N364A (Enterococcus faecium P21) (UniProt I3U2R6)
[3] = target: EfmRseP with the triple alanine substitution of the HExxH motif (Enterococcus faecium P21) (UniProt I3U2R6)
[4] = target: EfmRseP with substitution E19A (Enterococcus faecium P21) (UniProt I3U2R6)
[5] = target: Fusion of EfmRseP (1–200) and LpRseP (201–425) (Enterococcus faecium P21 | Lactiplantibacillus plantarum WCFS1) (UniProt I3U2R6)
[6] = target: EfmRseP with substitution N359A (Enterococcus faecium P21) (UniProt I3U2R6)
[7] = target: Fusion of EfmRseP (1–325) and LpRseP (326–425) (Enterococcus faecium P21 | Lactiplantibacillus plantarum WCFS1) (UniProt I3U2R6)
[8] = target: EfmRseP with substitution P369A (Enterococcus faecium P21) (UniProt I3U2R6)
[9] = target: RseP from Lactiplantibacillus plantarum WCFS1, C-terminal 6× His-tag (Lactiplantibacillus plantarum WCFS1)
[10] = target: Fusion of LpRseP (1–221) and EfmRseP (222–422) (Lactiplantibacillus plantarum WCFS1 | Enterococcus faecium P21) (UniProt I3U2R6)
[11] = target: Fusion of EfmRseP (1–32) and LpRseP (33–425) (Enterococcus faecium P21 | Lactiplantibacillus plantarum WCFS1) (UniProt I3U2R6)
[12] = target: Fusion of EfmRseP (1–170) and LpRseP (171–425) (Enterococcus faecium P21 | Lactiplantibacillus plantarum WCFS1) (UniProt I3U2R6)
[13] = target: Fusion of LpRseP (1–171, 222–425) and EfmRseP (172–221) (Lactiplantibacillus plantarum WCFS1 | Enterococcus faecium P21) (UniProt I3U2R6)
[14] = target: Fusion of LpRseP (1–171, 326–425) and EfmRseP (172–325) (Lactiplantibacillus plantarum WCFS1 | Enterococcus faecium P21) (UniProt I3U2R6)
[15] = target: Fusion of LpRseP (1–201, 328–425) and EfmRseP (202–327) (Lactiplantibacillus plantarum WCFS1 | Enterococcus faecium P21) (UniProt I3U2R6)
[16] = target: EfmRseP with substitution D372A (Enterococcus faecium P21) (UniProt I3U2R6)
[17] = target: Truncation of EfmRseP (1–39, 139–422) Δ40–138 (Enterococcus faecium P21) (UniProt I3U2R6)
[18] = target: EfmRseP with substitution P367A (Enterococcus faecium P21) (UniProt I3U2R6)
[19] = target: EfmRseP with substitution H18A (Enterococcus faecium P21) (UniProt I3U2R6)
[20] = target: Fusion of LpRseP (1–328) and EfmRseP (329–422) (Lactiplantibacillus plantarum WCFS1 | Enterococcus faecium P21) (UniProt I3U2R6)
[21] = target: Fusion of EfmRseP (1–221) and LpRseP (222–425) (Enterococcus faecium P21 | Lactiplantibacillus plantarum WCFS1) (UniProt I3U2R6)
[22] = target: RseP from Enterococcus faecium P21, C-terminal 6× His-tag (Enterococcus faecium P21) (UniProt I3U2R6)
[23] = target: EfmRseP with substitution H22A (Enterococcus faecium P21) (UniProt I3U2R6)
[24] = target: RseP from Staphylococcus arlettae LMGT 4134, without His-tag (Staphylococcus arlettae LMGT 4134)
[25] = target: RseP from Lactiplantibacillus plantarum WCFS1, without His-tag (Lactiplantibacillus plantarum WCFS1)
[26] = target: RseP from Staphylococcus haemolyticus, without His-tag (Staphylococcus haemolyticus)
[27] = target: RseP from Enterococcus faecium P21, without His-tag (Enterococcus faecium P21) (UniProt I3U2R6)
[28] = target: RseP from Lactococcus lactis IL1403, without His-tag (Lactococcus lactis IL1403)
[29] = target: RseP from Staphylococcus aureus ATCC 14458, without His-tag (Staphylococcus aureus ATCC 14458)
[30] = target: RseP from Enterococcus faecalis V583, without His-tag (Enterococcus faecalis V583) (UniProt Q9RPP2)

Substance: Enterocin K1 (peptide)
- MIC50 of EntK1 (growth inhibition, microtiter plate) towards L. plantarum expressing this RseP variant [1]: > 22 µM
- MIC50 of EntK1 (growth inhibition, microtiter plate) towards L. plantarum expressing this RseP variant [2]: 4 nM
- MIC50 of EntK1 (growth inhibition, microtiter plate) towards L. plantarum expressing this RseP variant [3]: 2.7 µM
- MIC50 of EntK1 (growth inhibition, microtiter plate) towards L. plantarum expressing this RseP variant [4]: 0.01 µM
- MIC50 of EntK1 (growth inhibition, microtiter plate) towards L. plantarum expressing this RseP variant [5]: > 22 µM
- MIC50 of EntK1 (growth inhibition, microtiter plate) towards L. plantarum expressing this RseP variant [6]: > 22 µM
- MIC50 of EntK1 (growth inhibition, microtiter plate) towards L. plantarum expressing this RseP variant [7]: < 2 nM
- MIC50 of EntK1 (growth inhibition, microtiter plate) towards L. plantarum expressing this RseP variant [8]: < 0.02 µM
- MIC50 of EntK1 (growth inhibition, microtiter plate) towards L. plantarum expressing this RseP variant [9]: > 22 µM
- MIC50 of EntK1 (growth inhibition, microtiter plate) towards L. plantarum expressing this RseP variant [10]: > 22 µM
- MIC50 of EntK1 (growth inhibition, microtiter plate) towards L. plantarum expressing this RseP variant; footnote: low expression may contribute [11]: > 22 µM
- MIC50 of EntK1 (growth inhibition, microtiter plate) towards L. plantarum expressing this RseP variant [12]: > 22 µM
- MIC50 of EntK1 (growth inhibition, microtiter plate) towards L. plantarum expressing this RseP variant [13]: > 22 µM
- MIC50 of EntK1 (growth inhibition, microtiter plate) towards L. plantarum expressing this RseP variant [14]: < 2 nM
- MIC50 of EntK1 (growth inhibition, microtiter plate) towards L. plantarum expressing this RseP variant [15]: 0.09 µM
- MIC50 of EntK1 (growth inhibition, microtiter plate) towards L. plantarum expressing this RseP variant [16]: 0.7 µM
- MIC50 of EntK1 (growth inhibition, microtiter plate) towards L. plantarum expressing this RseP variant [17]: 2.7 µM
- MIC50 of EntK1 (growth inhibition, microtiter plate) towards L. plantarum expressing this RseP variant [18]: 4 nM
- MIC50 of EntK1 (growth inhibition, microtiter plate) towards L. plantarum expressing this RseP variant [19]: 0.02 µM
- MIC50 of EntK1 (growth inhibition, microtiter plate) towards L. plantarum expressing this RseP variant [20]: > 22 µM
- MIC50 of EntK1 (growth inhibition, microtiter plate) towards L. plantarum expressing this RseP variant [21]: 0.7 µM
- MIC50 of EntK1 (growth inhibition, microtiter plate) towards L. plantarum expressing this RseP variant [22]: < 2 nM
- MIC50 of EntK1 (growth inhibition, microtiter plate) towards L. plantarum expressing this RseP variant [23]: 0.01 µM
- MIC50 of EntK1 (growth inhibition, microtiter plate) towards L. plantarum expressing this RseP; footnote: low expression may contribute [24]: > 22 µM
- MIC50 of EntK1 (growth inhibition, microtiter plate) towards L. plantarum expressing this RseP [25]: > 22 µM
- MIC50 of EntK1 (growth inhibition, microtiter plate) towards L. plantarum expressing this RseP [26]: 0.17 µM
- MIC50 of EntK1 (growth inhibition, microtiter plate) towards L. plantarum expressing this RseP [27]: 0.01 µM
- MIC50 of EntK1 (growth inhibition, microtiter plate) towards L. plantarum expressing this RseP [28]: 0.09 µM
- MIC50 of EntK1 (growth inhibition, microtiter plate) towards L. plantarum expressing this RseP; footnote: low expression may contribute [29]: > 22 µM
- MIC50 of EntK1 (growth inhibition, microtiter plate) towards L. plantarum expressing this RseP [30]: 0.04 µM
